Reference: patent US20260274985A1 (MYTHIC THERAPEUTICS, published 2026)

T1: Human TROP2 Protein, His Tag (Acro Biosystems) (human, UniProt P09758 27-274)
T1 construct: not shown: His tag
T1 sequence (looked up): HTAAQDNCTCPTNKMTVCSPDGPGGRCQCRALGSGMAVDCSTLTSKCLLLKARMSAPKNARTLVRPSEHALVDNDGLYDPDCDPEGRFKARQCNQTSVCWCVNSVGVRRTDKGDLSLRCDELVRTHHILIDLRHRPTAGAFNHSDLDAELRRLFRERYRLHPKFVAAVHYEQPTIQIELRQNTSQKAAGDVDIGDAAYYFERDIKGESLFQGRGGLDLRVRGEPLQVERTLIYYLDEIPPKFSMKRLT

T2: Human TROP2 Protein, His Tag (Acro Biosystems) (human, UniProt P09758 27-274)
T2 construct: Bought antigen used at 50 nM in the Octet screen; also called TACSTD2; not shown: His tag
T2 sequence (looked up): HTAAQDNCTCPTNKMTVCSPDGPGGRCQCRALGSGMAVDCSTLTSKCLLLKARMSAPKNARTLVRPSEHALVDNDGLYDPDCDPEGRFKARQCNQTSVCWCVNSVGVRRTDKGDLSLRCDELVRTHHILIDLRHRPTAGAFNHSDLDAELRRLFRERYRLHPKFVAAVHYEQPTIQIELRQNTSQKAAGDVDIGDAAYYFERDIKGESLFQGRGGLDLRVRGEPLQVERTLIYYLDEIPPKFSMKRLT


target: T1, Human TROP2 Protein, His Tag (Acro …); test: Octet (BLI); antigen and pH not given

Binder	Kd	Octet response at 33.33 nM (Y-Axis) nm
MYT11690 (antibody, V domains shown, IgG; also called Datopotamab LC variant) VH: QVQLVQSGAEVKKPGASVKVSCKASGYTFTTAGMQWVRQAPGQGLEWMGWINTHSGVPKYAEDFKGRVTISADTSTSTAYLQLSSLKSEDTAVYYCARSGFGSSYWYFDVWGQGTLVTVSS VL: DIQMTQSPSSLSASVGDRVTITCKASQDVSTAVAWYQQKPGKAPKLLIYSAHYRYTGVPSRFSGSGSGTDFTLTISSLQPEDFAVYYCQQHYITPLTFGQGTKLEIK	3.4 nM	0.0911 nm

target: T2, Human TROP2 Protein, His Tag (Acro …); test: BLI (Octet) [1/2]
Procedure, shortened: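 Antibody variants from day-4 expression supernatants, diluted in 1×PBST pH 7.4 by expression level, captured on anti-human Fc tips. Association with 50 nM human TROP2-His in PBST pH 7.4 for 120 sec; dissociation in PBST pH 7.4 or pH 5.4 for 300 sec. Curves examined for koff at each pH versus parent antibody.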

Binder	binding result
MYT11737 (antibody, V domains shown, screened as IgG in Expi293 supernatant) VH: QVQLQESGPGLVKPSETLSLTCTVSGGSISSYGVHWIRQPPGKGLEWIGVIWTSGVTDYNSALMGRVTISVDTSKNQFSLKLSSVTAADTAVYYCARDGDYHRYTMDYWGQGTLVTVSS VL: DIVMTQSPDSLAVSLGERATINCRASKSVSTSGYSYMHWYQQKPGQPPKLLIYLASNLESGVPDRFSGSGSGTDFTLTISSLQAEDVAVYYCQHSRELPYTFGQGTKLEIK	binds
MYT11738 (antibody, V domains shown) VH: QVQLQESGPGLVKPSETLSLTCTVSGGSISSYGVHWIRQPPGKGLEWIGVIWTSGVTDYNSALMGRVTISVDTSKNQFSLKLSSVTAADTAVYYCARDGDYDHYTMDYWGQGTLVTVSS VL: DIVMTQSPDSLAVSLGERATINCRASKSVSTSGYSYMHWYQQKPGQPPKLLIYLASNLESGVPDRFSGSGSGTDFTLTISSLQAEDVAVYYCQHSRELPYTFGQGTKLEIK	binds
MYT11739 (antibody, V domains shown, hu7E6SVG variant, His at HCV position 104 (H3 09); screened as IgG in Expi293 supernatant) VH: QVQLQESGPGLVKPSETLSLTCTVSGGSISSYGVHWIRQPPGKGLEWIGVIWTSGVTDYNSALMGRVTISVDTSKNQFSLKLSSVTAADTAVYYCARDGDYDRHTMDYWGQGTLVTVSS VL: DIVMTQSPDSLAVSLGERATINCRASKSVSTSGYSYMHWYQQKPGQPPKLLIYLASNLESGVPDRFSGSGSGTDFTLTISSLQAEDVAVYYCQHSRELPYTFGQGTKLEIK	no binding (tested: 50 nM)
MYT11740 (antibody, V domains shown, screened as IgG in Expi293 supernatant) VH: QVQLQESGPGLVKPSETLSLTCTVSGGSISSYGVHWIRQPPGKGLEWIGVIWTSGVTDYNSALMGRVTISVDTSKNQFSLKLSSVTAADTAVYYCARDGDYDRYHMDYWGQGTLVTVSS VL: DIVMTQSPDSLAVSLGERATINCRASKSVSTSGYSYMHWYQQKPGQPPKLLIYLASNLESGVPDRFSGSGSGTDFTLTISSLQAEDVAVYYCQHSRELPYTFGQGTKLEIK	no binding (tested: 50 nM)
MYT11742 (antibody, V domains shown, screened as IgG in Expi293 supernatant) VH: QVQLQESGPGLVKPSETLSLTCTVSGGSISSYGVHWIRQPPGKGLEWIGVIWTSGVTDYNSALMGRVTISVDTSKNQFSLKLSSVTAADTAVYYCARDGDYDRYTMHYWGQGTLVTVSS VL: DIVMTQSPDSLAVSLGERATINCRASKSVSTSGYSYMHWYQQKPGQPPKLLIYLASNLESGVPDRFSGSGSGTDFTLTISSLQAEDVAVYYCQHSRELPYTFGQGTKLEIK	binds
MYT11743 (antibody, V domains shown, screened as IgG in Expi293 supernatant) VH: QVQLQESGPGLVKPSETLSLTCTVSGGSISSYGVHWIRQPPGKGLEWIGVIWTSGVTDYNSALMGRVTISVDTSKNQFSLKLSSVTAADTAVYYCARDGDYDRYTMDHWGQGTLVTVSS VL: DIVMTQSPDSLAVSLGERATINCRASKSVSTSGYSYMHWYQQKPGQPPKLLIYLASNLESGVPDRFSGSGSGTDFTLTISSLQAEDVAVYYCQHSRELPYTFGQGTKLEIK	binds
MYT11744 (antibody, V domains shown, hu7E6SVG variant, His at LCV position 24 (L1 01); screened as IgG in Expi293 supernatant) VH: QVQLQESGPGLVKPSETLSLTCTVSGGSISSYGVHWIRQPPGKGLEWIGVIWTSGVTDYNSALMGRVTISVDTSKNQFSLKLSSVTAADTAVYYCARDGDYDRYTMDYWGQGTLVTVSS VL: DIVMTQSPDSLAVSLGERATINCHASKSVSTSGYSYMHWYQQKPGQPPKLLIYLASNLESGVPDRFSGSGSGTDFTLTISSLQAEDVAVYYCQHSRELPYTFGQGTKLEIK	binds
MYT11745 (antibody, V domains shown, hu7E6SVG variant, His at LCV position 25 (L1 02); screened as IgG in Expi293 supernatant) VH: QVQLQESGPGLVKPSETLSLTCTVSGGSISSYGVHWIRQPPGKGLEWIGVIWTSGVTDYNSALMGRVTISVDTSKNQFSLKLSSVTAADTAVYYCARDGDYDRYTMDYWGQGTLVTVSS VL: DIVMTQSPDSLAVSLGERATINCRHSKSVSTSGYSYMHWYQQKPGQPPKLLIYLASNLESGVPDRFSGSGSGTDFTLTISSLQAEDVAVYYCQHSRELPYTFGQGTKLEIK	binds
MYT11746 (antibody, V domains shown, hu7E6SVG variant, His at LCV position 26 (L1 03); screened as IgG in Expi293 supernatant) VH: QVQLQESGPGLVKPSETLSLTCTVSGGSISSYGVHWIRQPPGKGLEWIGVIWTSGVTDYNSALMGRVTISVDTSKNQFSLKLSSVTAADTAVYYCARDGDYDRYTMDYWGQGTLVTVSS VL: DIVMTQSPDSLAVSLGERATINCRAHKSVSTSGYSYMHWYQQKPGQPPKLLIYLASNLESGVPDRFSGSGSGTDFTLTISSLQAEDVAVYYCQHSRELPYTFGQGTKLEIK	binds
MYT11747 (antibody, V domains shown, hu7E6SVG variant, His at LCV position 27 (L1 04); screened as IgG in Expi293 supernatant) VH: QVQLQESGPGLVKPSETLSLTCTVSGGSISSYGVHWIRQPPGKGLEWIGVIWTSGVTDYNSALMGRVTISVDTSKNQFSLKLSSVTAADTAVYYCARDGDYDRYTMDYWGQGTLVTVSS VL: DIVMTQSPDSLAVSLGERATINCRASHSVSTSGYSYMHWYQQKPGQPPKLLIYLASNLESGVPDRFSGSGSGTDFTLTISSLQAEDVAVYYCQHSRELPYTFGQGTKLEIK	binds
MYT11748 (antibody, V domains shown, hu7E6SVG variant, His at LCV position 28 (L1 05); screened as IgG in Expi293 supernatant) VH: QVQLQESGPGLVKPSETLSLTCTVSGGSISSYGVHWIRQPPGKGLEWIGVIWTSGVTDYNSALMGRVTISVDTSKNQFSLKLSSVTAADTAVYYCARDGDYDRYTMDYWGQGTLVTVSS VL: DIVMTQSPDSLAVSLGERATINCRASKHVSTSGYSYMHWYQQKPGQPPKLLIYLASNLESGVPDRFSGSGSGTDFTLTISSLQAEDVAVYYCQHSRELPYTFGQGTKLEIK	binds
MYT11749 (antibody, V domains shown, hu7E6SVG variant, His at LCV position 29 (L1 06); screened as IgG in Expi293 supernatant) VH: QVQLQESGPGLVKPSETLSLTCTVSGGSISSYGVHWIRQPPGKGLEWIGVIWTSGVTDYNSALMGRVTISVDTSKNQFSLKLSSVTAADTAVYYCARDGDYDRYTMDYWGQGTLVTVSS VL: DIVMTQSPDSLAVSLGERATINCRASKSHSTSGYSYMHWYQQKPGQPPKLLIYLASNLESGVPDRFSGSGSGTDFTLTISSLQAEDVAVYYCQHSRELPYTFGQGTKLEIK	no binding (tested: 50 nM)
MYT11750 (antibody, V domains shown, hu7E6SVG variant, His at LCV position 30 (L1 07); screened as IgG in Expi293 supernatant) VH: QVQLQESGPGLVKPSETLSLTCTVSGGSISSYGVHWIRQPPGKGLEWIGVIWTSGVTDYNSALMGRVTISVDTSKNQFSLKLSSVTAADTAVYYCARDGDYDRYTMDYWGQGTLVTVSS VL: DIVMTQSPDSLAVSLGERATINCRASKSVHTSGYSYMHWYQQKPGQPPKLLIYLASNLESGVPDRFSGSGSGTDFTLTISSLQAEDVAVYYCQHSRELPYTFGQGTKLEIK	binds
MYT11751 (antibody, V domains shown, hu7E6SVG variant, His at LCV position 31 (L1 08); screened as IgG in Expi293 supernatant) VH: QVQLQESGPGLVKPSETLSLTCTVSGGSISSYGVHWIRQPPGKGLEWIGVIWTSGVTDYNSALMGRVTISVDTSKNQFSLKLSSVTAADTAVYYCARDGDYDRYTMDYWGQGTLVTVSS VL: DIVMTQSPDSLAVSLGERATINCRASKSVSHSGYSYMHWYQQKPGQPPKLLIYLASNLESGVPDRFSGSGSGTDFTLTISSLQAEDVAVYYCQHSRELPYTFGQGTKLEIK	no binding (tested: 50 nM)
MYT11752 (antibody, V domains shown, hu7E6SVG variant, His at LCV position 32 (L1 09); screened as IgG in Expi293 supernatant) VH: QVQLQESGPGLVKPSETLSLTCTVSGGSISSYGVHWIRQPPGKGLEWIGVIWTSGVTDYNSALMGRVTISVDTSKNQFSLKLSSVTAADTAVYYCARDGDYDRYTMDYWGQGTLVTVSS VL: DIVMTQSPDSLAVSLGERATINCRASKSVSTHGYSYMHWYQQKPGQPPKLLIYLASNLESGVPDRFSGSGSGTDFTLTISSLQAEDVAVYYCQHSRELPYTFGQGTKLEIK	binds
MYT11753 (antibody, V domains shown, hu7E6SVG variant, His at LCV position 33 (L1 10); screened as IgG in Expi293 supernatant) VH: QVQLQESGPGLVKPSETLSLTCTVSGGSISSYGVHWIRQPPGKGLEWIGVIWTSGVTDYNSALMGRVTISVDTSKNQFSLKLSSVTAADTAVYYCARDGDYDRYTMDYWGQGTLVTVSS VL: DIVMTQSPDSLAVSLGERATINCRASKSVSTSHYSYMHWYQQKPGQPPKLLIYLASNLESGVPDRFSGSGSGTDFTLTISSLQAEDVAVYYCQHSRELPYTFGQGTKLEIK	binds
MYT11754 (antibody, V domains shown, hu7E6SVG variant, His at LCV position 34 (L1 11); screened as IgG in Expi293 supernatant) VH: QVQLQESGPGLVKPSETLSLTCTVSGGSISSYGVHWIRQPPGKGLEWIGVIWTSGVTDYNSALMGRVTISVDTSKNQFSLKLSSVTAADTAVYYCARDGDYDRYTMDYWGQGTLVTVSS VL: DIVMTQSPDSLAVSLGERATINCRASKSVSTSGHSYMHWYQQKPGQPPKLLIYLASNLESGVPDRFSGSGSGTDFTLTISSLQAEDVAVYYCQHSRELPYTFGQGTKLEIK	binds
MYT11755 (antibody, V domains shown, hu7E6SVG variant, His at LCV position 35 (L1 12); screened as IgG in Expi293 supernatant) VH: QVQLQESGPGLVKPSETLSLTCTVSGGSISSYGVHWIRQPPGKGLEWIGVIWTSGVTDYNSALMGRVTISVDTSKNQFSLKLSSVTAADTAVYYCARDGDYDRYTMDYWGQGTLVTVSS VL: DIVMTQSPDSLAVSLGERATINCRASKSVSTSGYHYMHWYQQKPGQPPKLLIYLASNLESGVPDRFSGSGSGTDFTLTISSLQAEDVAVYYCQHSRELPYTFGQGTKLEIK	binds
